Source: patent US10968255

How the values were obtained:
[1] = target: CH505 TF loop D mutant M8 Env (pseudovirus) (HIV-1); assay: cell-based or functional assay
[2] = target: CH505 transmitted/founder (TF) gp120 Env (HIV-1); assay: competition ELISA, competitor biotinylated CH240
[3] = target: CH505 transmitted/founder (TF) gp120 Env (HIV-1); assay: competition ELISA, competitor biotinylated CH241
[4] = target: BG505 SOSIP.664 gp140 trimer (HIV-1); assay: negative stain EM
[5] = target: B41 SOSIP.664 gp140 trimer (HIV-1); assay: negative stain EM
[6] = target: CH505 transmitted/founder (TF) gp120 Env (HIV-1); assay: SPR, antibody captured, gp120 injected
[7] = target: CH505 TF loop D mutant M9 Env (pseudovirus) (HIV-1); assay: cell-based or functional assay
[8] = target: CH505 TF loop D mutant M20 Env (pseudovirus) (HIV-1); assay: cell-based or functional assay
[9] = target: CH505 TF loop D mutant M7 Env (pseudovirus) (HIV-1); assay: cell-based or functional assay
[10] = target: CH505 TF chimeric SOSIP.III trimer (CH505TFchim.6R.SOSIP.664v4.1) (HIV-1 (CH505 gp120 with BG505 gp41, chimera)); assay: negative stain EM
[11] = target: CH505 transmitted/founder (TF) gp120 Env (HIV-1); assay: competition ELISA, blocking of CH106 binding to CH505 TF gp120
[12] = target: CH505 transmitted/founder (TF) gp120 Env (HIV-1); assay: competition ELISA, blocking of sCD4 binding to CH505 TF gp120

Question: For CH235.9 (antibody), which neutralization IC50, TZM-bl pseudovirus assay [1] is on record?
Answer: 0.66 µg/mL

Question: What does the source list for CH106 (antibody)?
Answer: IC50 [2]: 2.3 µg/mL; IC50 [3]: 14.3 µg/mL

Question: Which results are given for CH235 Fab?
Answer: stoichiometry (Fabs per trimer) (Fabs per trimer) [4]: 1; stoichiometry (Fabs per trimer) (Fabs per trimer) [5]: 2

Question: For “CH103 lineage unmutated common ancestor (UCA) (antibody)”, which Kd [6] is on record?
Answer: 227 nM

Question: And the kon [6]?
Answer: 37000 M⁻¹ s⁻¹

Question: Which neutralization IC50, TZM-bl pseudovirus assay [7] does the source give for CH235.9 N30T (antibody) here?
Answer: > 44 µg/mL

Question: What about the neutralization IC50, TZM-bl pseudovirus assay [8] of the same substance?
Answer: > 44 µg/mL

Question: What about the neutralization IC50, TZM-bl pseudovirus assay [9] of the same substance?
Answer: > 44 µg/mL

Question: And the fold increase of the neutralization IC50 against CH235.9 [1]?
Answer: 37 fold

Question: What about the neutralization IC50, TZM-bl pseudovirus assay [1] of the same substance?
Answer: 24.3 µg/mL

Question: With CH103 Fab as the substance, how does the stoichiometry (Fabs per trimer) (Fabs per trimer) [4] read?
Answer: 3

Question: And the binding ratio (CH103 to gp140) (CH103 per gp140) [10]?
Answer: 1

Question: And the stoichiometry (Fabs per trimer) (Fabs per trimer) [10]?
Answer: 3

Question: Which stoichiometry (Fabs per trimer) (Fabs per trimer) [4] does the source give for CH235.9 Fab here?
Answer: 3

Question: And the stoichiometry (Fabs per trimer) (Fabs per trimer) [5]?
Answer: 3

Question: What does the source list for CH235.12 Fab?
Answer: stoichiometry (Fabs per trimer) (Fabs per trimer) [4]: 3; stoichiometry (Fabs per trimer) (Fabs per trimer) [5]: 3

Question: For CH241 (antibody), which Kd [6] is on record?
Answer: 0.7 nM

Question: And the koff [6]?
Answer: 0.00033 s⁻¹

Question: What about the IC50 [11] of the same substance?
Answer: 2.6 µg/mL

Question: And the IC50 [12]?
Answer: 1.5 µg/mL
